For the data set the following is noted: Halorhodospira halophila, Thermal, DSC, reversible: yes, whole UniProt chain shown.

Results on 1 protein are retold here after FireProtDB (doi:10.1002/pro.5560041213).

B1: High-potential iron-sulfur protein isozyme 1 wild type, P04168 (protein)
chain: EPRAEDGHAHDYVNEAADASGHPRYQEGQLCENCAFWGEAVQDGWGRCTHPDFDEVLVKAEGWCSVYAPAS
As a reminder, the Tm is the temperature at the midpoint of the melting transition. In the case of B1, the Tm runs as follows: (pH 7, MOPS 20 mM) 67.7 °C; (pH 9, TAPS 20 mM) 66.4 °C; (pH 10, CAPS 20 mM) 66.5 °C; (pH 11, piperidine 40 mM) 50.3 °C.
